Data published in patent publication US20190083662A1 (CENTRE FOR PROBE DEVELOPMENT AND COMMERCIALIZATION, published 2019).

B1: [^177Lu]-Compound A-HuMIGF-1R (antibody, V domains shown)
VH: QVQLVQSGAEVVKPGASVKLSCKASGYTFTSYWMHWVKQRPGQGLEWIGEINPSNGRTNYNQKFQGKATLTVDKSSSTAYMQLSSLTSEDSAVYYFARGRPDYYGSSKWYFDVWGQGTTVTVSSASTKGPSVFPLAPSSKSTSGGTAALG
VL: DVVMTQTPLSLPVSLGDPASISCRSSQSIVHSNVNTYLEWYLQKPGQSPRLLIYKVSNRFSGVPDRFSGSGAGTDFTLRISRVEAEDLGIYYCFQGSHVPPTFGGGTKLEIKRTVAAPSVFIFPPSDEQLKSGTASVVCLLNNFYPREAK
notes: Whole antibody HuMIGF-1R (AVE1642, humanized EM164; MALDI m/z about 149835) conjugated with the chelate Compound A (DOTA-GA anhydride) and loaded with 177Lu; also called 177Lu-DOTA-GA-AVE1642; (Compound A)-HuMIGF-1R radiolabelled with Lu-177
B2: [^177Lu]-Compound B-HuMIGF-1R (antibody, V domains shown)
VH: B1 VH
VL: B1 VL
notes: Whole antibody HuMIGF-1R (AVE1642) conjugated with the chelate Compound B (DOTA-GA with an 11-aminoundecanoyl linker, TFP ester) and loaded with 177Lu; also called Compound B-HuMIGF-1R radiolabelled with Lu-177
B3: [^177Lu]-Compound C-HuMIGF-1R (antibody, V domains shown)
VH: B1 VH
VL: B1 VL
notes: Whole antibody HuMIGF-1R (AVE1642) conjugated with the chelate Compound C (DOTA-GA with a PEG3 linker, TFP ester) and loaded with 177Lu; also called Compound C-HuMIGF-1R radiolabelled with Lu-177

Molecular target: T1, insulin-like growth factor-1 receptor (IGF-1R) (human, UniProt P08069 31-1367)
T1 construct: whole, on cells; Endogenous receptor on A431 cells ('IGF-1R expressing A431 cell line'); also called IGF-1 receptor
Assay: saturation radioligand binding on A431 cells, 4 C, specific binding fitted to a single-site hyperbola
Procedure: Nonspecific binding is typically assessed by measuring radioconjugate binding in the presence of a fixed concentration of HumIGF-1R that binds to essentially all the receptors. Since all the receptors are occupied by the HumIGF-1R, the radioconjugate only binds nonspecifically. Kd and Bₘₐₓ values are calculated by nonlinear regression analysis and computerized curve fitting.
The purpose of this assay was to ensure that these new radioconjugates maintained binding characteristics consistent with the native antibody in an IGF-1R expressing A431 cell line. Twenty-four hours prior to the start of the experiment, 1.5×10⁵ A431 cells were seeded in 48-well microplates in 500 μl supplemented medium. The radioconjugate was diluted with binding buffer (PBS+0.5% BSA) to a range of concentrations from 0.08 nM to 40 nM; final assay concentration 0.04 to 20 nM. At the start of the assay, the media is aspirated, discarded and 500 μI of serum-free DMEM was added to each well. The plates were incubated at 37° C. for 1 hour. Following incubation, media was aspirated from each well and discarded. The cells were washed and 100 μI of binding buffer (total binding) or 4 μM cold-antibody (non-specific binding) added to designated wells. Plates were incubated at 4° C. for 1 hour with mild shaking. […] The lysates were transferred to counting tubes and run with radioconjugate standards on the Wizard 1470 gamma counter to determine the radioactivity content (in counts per minute (CPM)) for each lysate. The remaining lysate from each well (25 μI) was transferred to a 96-well plate, and the protein content of each lysate determined using a standard protein quantification assay. Total, non-specific and specific ligand binding determinations, mass of bound conjugate in each lysate were calculated by converting lysate CPM to fmol bound using the specific activity of the conjugate standards and then normalizing the fmol bound to the protein content of each lysate(in milligrams). Specific binding was determined by subtracting the non-specific binding from total binding.

T1 sequence (P08069 31-1367): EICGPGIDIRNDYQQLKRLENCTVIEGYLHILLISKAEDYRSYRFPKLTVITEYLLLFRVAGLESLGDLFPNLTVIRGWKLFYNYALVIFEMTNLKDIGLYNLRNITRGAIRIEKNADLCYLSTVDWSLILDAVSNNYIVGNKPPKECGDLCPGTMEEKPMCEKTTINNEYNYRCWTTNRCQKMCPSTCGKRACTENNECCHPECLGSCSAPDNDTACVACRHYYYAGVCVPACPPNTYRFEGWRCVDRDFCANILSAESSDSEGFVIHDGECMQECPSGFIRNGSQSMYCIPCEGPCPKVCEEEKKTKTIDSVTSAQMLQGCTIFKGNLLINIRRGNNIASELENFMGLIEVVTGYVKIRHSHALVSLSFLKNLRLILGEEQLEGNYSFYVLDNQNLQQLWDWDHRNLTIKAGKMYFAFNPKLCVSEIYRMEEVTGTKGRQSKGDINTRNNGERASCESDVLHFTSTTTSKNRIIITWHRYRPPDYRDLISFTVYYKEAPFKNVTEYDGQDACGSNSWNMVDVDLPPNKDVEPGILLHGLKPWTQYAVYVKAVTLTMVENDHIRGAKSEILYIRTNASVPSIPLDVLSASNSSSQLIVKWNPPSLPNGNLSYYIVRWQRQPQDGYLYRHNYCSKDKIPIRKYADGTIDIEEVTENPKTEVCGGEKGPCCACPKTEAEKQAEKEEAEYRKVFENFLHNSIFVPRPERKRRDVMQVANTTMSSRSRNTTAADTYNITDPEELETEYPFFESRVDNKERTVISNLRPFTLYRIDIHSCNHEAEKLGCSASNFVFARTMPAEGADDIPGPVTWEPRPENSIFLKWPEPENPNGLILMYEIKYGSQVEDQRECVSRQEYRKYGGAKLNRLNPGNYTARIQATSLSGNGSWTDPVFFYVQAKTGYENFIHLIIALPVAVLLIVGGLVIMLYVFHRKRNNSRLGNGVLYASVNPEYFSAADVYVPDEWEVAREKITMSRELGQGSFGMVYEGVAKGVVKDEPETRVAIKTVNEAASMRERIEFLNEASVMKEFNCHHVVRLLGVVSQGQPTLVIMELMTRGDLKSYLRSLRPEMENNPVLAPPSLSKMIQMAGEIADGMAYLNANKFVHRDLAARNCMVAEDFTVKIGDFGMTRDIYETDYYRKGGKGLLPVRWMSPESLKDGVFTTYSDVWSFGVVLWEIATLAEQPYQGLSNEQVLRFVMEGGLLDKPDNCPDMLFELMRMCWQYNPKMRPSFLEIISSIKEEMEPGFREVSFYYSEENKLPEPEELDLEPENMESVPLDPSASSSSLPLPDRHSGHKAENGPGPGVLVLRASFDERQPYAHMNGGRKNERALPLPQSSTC

In order of falling Kd:
1. B1  2.9 nM
2. B3  2.2 nM
3. B2  2 nM
